The values below are quoted from earlier work in PMC3416887.

This data set concerns the target FibP (Homo sapiens) (UniProt P02679).

As usually defined, the Kd is the constant that tells how readily two partners part at equilibrium. Turning to thrombin (from UniProt P00734), the Kd was 630 nM.
